The source of these data is article PMC3069404 (The Journal of Biological Chemistry, 2011).

One test has as its target Cse4/H4 (S. cerevisiae, UniProt P36012 1-229; P02309 1-103). Put plainly: reconstitution of the complex from the separate proteins.
In the next test the target is Cse4 (recombinant) (S. cerevisiae, UniProt P36012 1-229). Described as above.
Chain of Cse4 (recombinant) (P36012 whole entry): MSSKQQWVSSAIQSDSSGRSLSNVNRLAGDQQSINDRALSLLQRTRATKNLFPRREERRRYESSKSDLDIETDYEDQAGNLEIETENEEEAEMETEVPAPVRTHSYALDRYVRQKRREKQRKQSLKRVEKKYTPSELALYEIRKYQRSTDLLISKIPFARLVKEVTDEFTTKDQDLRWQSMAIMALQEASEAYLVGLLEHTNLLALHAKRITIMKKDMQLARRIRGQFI

Chain of Cse4/H4 (P36012 whole entry, one chain of several): as the sequence (P36012 whole entry) above

B1: His6-Scm3-Δ25N (recombinant) (domain or fragment, S. cerevisiae, UniProt Q12334 26-223, looked up)
chain: ESGKKSESKIRKHSDCNPVHRVYPPNIEKRKTKKDDGISRPIAERNGHVYIMSKENHIIPKLTDDEVMERHKLADENMRKVWSNIISKYESIEEQGDLVDLKTGEIVEDNGHIKTLTANNSTKDKRTKYTSVLRDIIDISDEEDGDKNDEYTLWANDSEASDSEVDADNDTEEEKDEKLIDADFKKYEAKLSKRILRD
For the molecule B1, the binding result with Cse4/H4 and with Cse4 (recombinant) was “binds” in each case.
